The target in experiment [1] is recombinant human melanocortin-1 receptor (hMCR-1a) in membrane homogenates of HEK-293 cells (human) (UniProt Q01726). Put plainly: competitive inhibition of [I125]-NDP-alpha-MSH, hMCR-1 HEK-293 membranes.
For experiment [2], the target named is recombinant human melanocortin-4 receptor (hMCR-4) in membrane homogenates of HEK-293 cells (human) (UniProt P32245). Put plainly: competitive inhibition of [I125]-NDP-alpha-MSH, hMCR-4 HEK-293 membranes.

[ ]: non-standard residue; d: D form. Nle = CCCC[C@H](N)C(=O)O; Orn = NCCC[C@H](N)C(=O)O; Dab = NCC[C@H](N)C(=O)O; Sar = CNCC(=O)O

Chain of recombinant human melanocortin-1 receptor (hMCR-1a) in membrane homogenates of HEK-293 cells (human) (Q01726 whole entry): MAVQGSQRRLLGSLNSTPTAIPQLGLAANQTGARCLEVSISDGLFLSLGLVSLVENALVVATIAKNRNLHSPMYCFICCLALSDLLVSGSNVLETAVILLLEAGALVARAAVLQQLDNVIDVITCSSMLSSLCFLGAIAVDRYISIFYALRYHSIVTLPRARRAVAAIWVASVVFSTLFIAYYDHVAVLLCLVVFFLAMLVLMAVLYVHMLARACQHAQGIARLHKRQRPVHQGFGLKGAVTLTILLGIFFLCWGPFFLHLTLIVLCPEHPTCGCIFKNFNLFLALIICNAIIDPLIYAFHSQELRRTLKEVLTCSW
Chain of recombinant human melanocortin-4 receptor (hMCR-4) in membrane homogenates of HEK-293 cells (human) (P32245 whole entry): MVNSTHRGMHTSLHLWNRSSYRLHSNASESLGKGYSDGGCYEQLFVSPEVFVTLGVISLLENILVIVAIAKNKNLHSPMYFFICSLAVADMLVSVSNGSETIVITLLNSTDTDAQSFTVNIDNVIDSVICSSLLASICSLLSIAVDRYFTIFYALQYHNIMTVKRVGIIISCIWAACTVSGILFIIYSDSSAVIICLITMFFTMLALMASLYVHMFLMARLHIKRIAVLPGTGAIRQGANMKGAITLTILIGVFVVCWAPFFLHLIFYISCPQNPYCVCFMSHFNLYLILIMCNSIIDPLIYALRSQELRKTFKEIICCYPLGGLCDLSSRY

B1: Ac-Nle-Ala-Orn-D-Phe-Arg-Ala-Trp-NH2 (peptide)
peptide: Ac-[Nle]A[Orn][dF]RAW-NH2
SMILES: CCCC[C@H](NC(C)=O)C(=O)N[C@@H](C)C(=O)N[C@@H](CCCN)C(=O)N[C@H](Cc1ccccc1)C(=O)N[C@@H](CCCNC(=N)N)C(=O)N[C@@H](C)C(=O)N[C@@H](Cc1c[nH]c2ccccc12)C(N)=O
With B1, the Ki in experiment [1] turned out to be 0.3 nM; in experiment [2] it was 7580 nM.

B2: Ac-Nle-Ala-His-D-Phe-Arg-D-Pro-Trp-NH2 (peptide)
peptide: Ac-[Nle]AH[dF]R[dP]W-NH2
SMILES: CCCC[C@H](NC(C)=O)C(=O)N[C@@H](C)C(=O)N[C@@H](Cc1c[nH]cn1)C(=O)N[C@H](Cc1ccccc1)C(=O)N[C@@H](CCCNC(=N)N)C(=O)N1CCC[C@@H]1C(=O)N[C@@H](Cc1c[nH]c2ccccc12)C(N)=O
As for B2, the Ki in experiment [1] stood at 14 nM; in experiment [2] it was 6200 nM.

B3: Ac-Nle-Ala-His-D-Phe-Arg-Sar-Trp-NH2 (peptide)
peptide: Ac-[Nle]AH[dF]R[Sar]W-NH2
SMILES: CCCC[C@H](NC(C)=O)C(=O)N[C@@H](C)C(=O)N[C@@H](Cc1c[nH]cn1)C(=O)N[C@H](Cc1ccccc1)C(=O)N[C@@H](CCCNC(=N)N)C(=O)N(C)CC(=O)N[C@@H](Cc1c[nH]c2ccccc12)C(N)=O
In the case of B3, the figures for the Ki in experiment [1] and in experiment [2] were 2 nM and 870 nM, respectively.

B4: Ac-Nle-Ala-His-D-Phe-Arg-Pro-D-Trp-NH2 (peptide)
peptide: Ac-[Nle]AH[dF]RP[dW]-NH2
SMILES: CCCC[C@H](NC(C)=O)C(=O)N[C@@H](C)C(=O)N[C@@H](Cc1c[nH]cn1)C(=O)N[C@H](Cc1ccccc1)C(=O)N[C@@H](CCCNC(=N)N)C(=O)N1CCC[C@H]1C(=O)N[C@H](Cc1c[nH]c2ccccc12)C(N)=O
Take B4: the Ki in experiment [1] was determined as 2 nM; in experiment [2], 650 nM.

B5: Ac-Nle-Ala-Dab-D-Phe-Arg-Ala-Trp-NH2 (peptide)
peptide: Ac-[Nle]A[Dab][dF]RAW-NH2
SMILES: CCCC[C@H](NC(C)=O)C(=O)N[C@@H](C)C(=O)N[C@@H](CCN)C(=O)N[C@H](Cc1ccccc1)C(=O)N[C@@H](CCCNC(=N)N)C(=O)N[C@@H](C)C(=O)N[C@@H](Cc1c[nH]c2ccccc12)C(N)=O
In the case of B5, the inhibition constant Ki in experiment [1] worked out at 2 nM; in experiment [2] it was 7850 nM.

B6: Ac-Nle-Ala-His-D-Phe-Arg-Ala-D-Trp-NH2 (peptide)
peptide: Ac-[Nle]AH[dF]RA[dW]-NH2
SMILES: CCCC[C@H](NC(C)=O)C(=O)N[C@@H](C)C(=O)N[C@@H](Cc1c[nH]cn1)C(=O)N[C@H](Cc1ccccc1)C(=O)N[C@@H](CCCNC(=N)N)C(=O)N[C@@H](C)C(=O)N[C@H](Cc1c[nH]c2ccccc12)C(N)=O
As to B6, the figures for the Ki in experiment [1] and in experiment [2] were 7 nM and 215 nM, respectively.

In general, Ki refers to the dissociation constant of the complex between target and ligand, obtained from inhibition or displacement.

These data come from patent US20150119341A1.
